The record followed here is patent publication US20160053277A1, “Compositions Having Dicamba Decarboxylase Activity and Methods of Use” (PIONEER HI-BRED INTERNATIONAL, INC., priority 2013, published 2016).

First the molecules themselves.
B1: 64 (protein, listed as Achromobacter piechaudii)
chain: MAIQKIDMHAHFFPPITRQEAAALDPVNAPWLRPDADGATGQIMAGEREFRPVDATLWDPALRIEQMDRHGVDVQILCATPIMFGYTYPARPAADWAARMNDLALEHCAYAPSRLKALAQVPLQDLELACQEASRARAAGHLGVQIGNHVGPRDLDDETLVQFLIHCANNDIPVLVHPWDMMTDGRMKKWMLPWLVSMPAETQLGILSLILSGAFERIPRSLKLCFAHGGGSFAYLLGRVDNAWRHRDIIRQDCPQLPSSYTDRFYTDSAVFDPRSLRLLIDVMGEDRVLLGSDYPYPLGEQEVGRLVAHAELVPEVQQKILFRNTMTFFGLQPGLQPGLQS
B2: 61 (protein, listed as Gordonia amarae)
chain: MATGAGSGVPSPADRVIVRSPGVIDVHAHAVLPMSLGCAGAAGPEIGYREDGSPFFRVGEYVLNGVRYEGSAFMDPEVRVAAMDAAGIGLQMISPNPITYFTRLDARSATDYARAHNDAIAEAAGRHPGRLVGAAQLPMQDVPAAIAELERSVRELGLVAAYIDTDIGDRTLDAPELDDFYSAAVELDVPVFIHPSPVGQEGPPDDTRLRRFDLDLLLGFSYDETLAVAALVFGGVLERHPALDVCLSHGGGTLAFVAGRFARAVAKPRAWVPEFLVENGIESYLRRLWLDTHVHSAGSLRLLIDTVGTDRLVFGTNFAGWDADGATEVDALGDLRETTTANAAHLLRLGRA
B3: 60 (protein, listed as Catenulispora acidiphila)
chain: MARGFVRTAVVPGFWDAGWRGAGQPGGMRVDVHAHLFPAAYLDLLDDFRQDGGVGTREVRALGGGDGERELRLRLAAMDAVGVDVQLLSTCPQGPYTGDPTAAVEAARCANVALAQTVAQYPERLRALAALPLPHILASVDELNRAMEQDGMLGAAVGTSILGRPLSHPDFEPLFAALNRRKGVLFVHPIGESAGSPLMQASKLDRVIGYAAEVSTAILQLFQAGLTVKYPDIRIIAPHMGGYLPFLIQRLDRHRDWYLPKDAPSAGQLMRGIAYDTANPLPAALRLTAEVVGPERLLLGTDYPFEQGPSLRDHIEYILAAGLPEAQAKMIVDVNAADFLDMRSGAEQPPV
B4: 70 (protein, listed as Alicyclobacillus acidocaldarius)
chain: MAIEPNRAADVHTHFLPTEVLEFLKREPRIQVDLERRAPDKEPFLTVEGRWSFELKRMFVDFEAFASAYRQAGIGLALVSPLPQLFVYHLPAEMGAQVAEVYNDALRDVLAPHRERFRPLATLPLADPTAAARELERRMDEGFVGAIVGPGVGEALIGDEAFWPLWEVADARRAVLFLHPLLHADPRAARLMLPNLVGVPWETTLAAAHLVLSGLLDRYPGARVLLAHGGGFLPYQIGRIEQGYDVWPQVRGRLQDRPTAYLRRMFYDNVLWSDAALRCLIDVVGADRVLAGSDFPFDLSAWPPRPGADVSVLAGGSGREGRLS
B5: 71 (protein, listed as Burkholderia dolosa)
chain: MARAGHRAARTRQSRPGDRTMTCSCCMSAGRRRVLGAFAALAGAPKGPRAASAAQPAAASKPTRGDATARNRHSRALLPGKASASWSATKASGSGGAFAWDDTTFTFRTPAGGLGPLPMKFIDVDARLRDMDASGVDVQALSLSVPMAYWGDRPFNAKLARAWNTAASRVHVRAPDRFVVLATLPMLDATDAIDELERASELPGVRGVYMGTNIDNRDLDDPRFAPVFARIEQLGLPVFLHPQQTVGGARLGDFYLSNLLGNPFDTAIAASHLILGGVLDRHPALHFTLPHAGGALPILVGRLDAGWTVRAETRRLAHQPSGYLRRFSYDTVSHSGPVLNFLIENVGIDRLVLGSDYCFDMGYEQPVRFLDRLDLTPDERAMVIGGNAGRLLRI
B6: 72 (protein)
chain: MADCPCCVSPKRRRLLGSVSAIAAGMMAGLPALAAQPSTAAAGTGKPLSIDIHAHYYSESFLGLLGGEGKQFGGHFFRNDDSFTFQTPAGGLGPLPMKFIDVEQRVRDMDNSGVDVQAISLSVPMVYWADRTLNAKLARAWNTAASDVHRKHPTRFVVLATLPMLNANDAIDELEFAAGLPGVRGIYMGTNINNRDLDDPLFSPIFKRIEQLNLPIFLHPQQTVGGARLADFYLSNLLGNPFDTAIAASHLILGGVLDKYPALHFSLPHAGGALPILVGRIDAGWSMRSETKRVAQKPSSYLRRFSYDTISHSGPTLDFLIRNIGADRLVLGSDYCFDMGYEQPVRFLDRLALPDDQKRMVVGGNAARLLNL
modifications: Cupriavidus necator
B7: 59 (protein)
chain: MAPSVIDAHAHFLPGSLVTALRSRSDAPDIRTDSNGGESFGIYRTRMPYGRTYDALDVRLARMDELGVDRQILSLPGLFGIDSRPVSQALPLVRAFNDGVADLVRKHPDRFSGIAALPLADLDAAQEEYRRARGDLGLSGLILPGDTFVSVAAAERVRPLFELAATIGGLIFVHPGPLPDETGSAVDAPAPHTDSVVHRRVTVDIQNRMTEVMVTLALTDFLAPYPSVPVQVANLGGSLPFVIERMDHVYALRNPEAPPPSLSLRSLYVDAASLGPRAIALAAEVYGADRVLFGSDYPIFDDGRCLDAVRQTRLSPDARALIAGGNAARMLTQT
modifications: alpha proteobacterium
B8: 68 (protein, listed as Hoeflea phototrophica)
chain: MAIIDAHTHTLCPAVNEKVAGTIKPDSVPYQRDMSPESKEQDHTQFPELKIMFNQVERRLADMARMGIDRQVIAPAPGQQHYWAEPKLLAEISALQNDHVAELVARAPDRFAGIGTLPMTDPDAAVAEITRATRELGLRVFQIDSRVMERELSDASLDPIYAALEAAGAGLMIHPLGFSNGERLTPFFMVNSVAQPLEELLAFNHLVFGGVLDRFPKLKVYIAHGGGFAPFYIGRFDHAWKVRPEVNRLTPSAPSTYLRRIYFDTCVYRTDHIETLVRTVGADRVMLGSDYPFDMGDTDPLGLLNACQGLSDDEKATISSKVAIDFFGLET
B9: 3 (protein, listed as Lactobacillus plantarum)
chain: MAKLITVEEHFESAAVTAAMRQAVGNAVLPAVSPALRQYMRDNLPSPAIMQDTQHERLAFMAQYGIDMQVLSYGNSSPQNLSPEQAVPLSQLANDELAKAVVAHPDRYAGLAVLPVGDPQAAVAELNRAVTTLGLRGVLLKGNYQNKFFDEPFFLPIFEAAAALDVPVYFHPSFIPQAVTSHYFESNQWSDVVTGILSSAGYGWHMDVGIQVIRMIASGIFDKLPGLKLISGHWGELVPLFLERLDDELTTYTDLQYPFSTYYRHNVYVTPSGILSAPQLQFMLAEMGADHLMYSIDYPYKQPETSGSFLDIADLTDEQRAQIAFGTATTLFKL
B10: 62 (protein)
chain: MAVGGKNFRDVTDQVWCPKKRIEDMDREGVDIQVLSPIPVTFSYWAKPEEAESMARIQNDFIAETVLAYPDRFVGLGTVPMQDGETAIREMERCITELNLHGIEIGTNVNGKNLDDPSFIEFFRMAEKWQVPIFIHPWETLGRDRMPHHNFMYTVGMPSETALAAATLIWSGIMEKFPRLKVCFAHGGGSFPYILPRLDQGWKVWPHLRLTTHPPSYYAKKFYFDSLNYDPINLKYMIERFGHEKIFMGSDYPFLLREVDPGKVIDETASLSEEQKAAMLGGNAAEFLNIDIKKRGVAYAESTNT
modifications: Bacillus thuringiensis serovar pulsiensis
B11: 73 (protein, listed as Sphaerobacter thermophilus)
chain: MARIDAHAHAQPPEYLDALLASGRYESVRDAEGRIVVRERGSRFLTITPQMHHPEQRVAEMDEAGIDMQILSVTTPQVYFLQGQAAVDLARRCNDYLADIVRSYPTRFRALASVPLTADPDAAVREFVRCLDDLGMVGAIIGSNIDGRPIDDPAFDAFYAEADRRATTLFIHPMVPAGIEVMNPYALAPLVGFMFDTTLAVSRLIFSGFFERYPRVKVLVGHLGAAVPYLAGRLDIGWRSYSDCQGIPHPPTEYIRRLYLDTVSFHAPALRCALETVGPDRIVFGSDYPHVIGDVGGAIASIQQALPATTHDGVLGHTAAELFGVSA
B12: 69 (protein, listed as Microbacterium testaceum)
chain: MATSTEGQDVTDVHAHLLMPGLHAEVERRVPDEVQAAADLELRRNGLASLQASGRMIGERFPRLTDVRARLAAMDEQGVDRQWVSPSPNHFYPWANEGLATWASGEANRLIAEHVALAPDRLVGLGVVPLQHPHLVVDALDDAVLGRGLAGVEISSFAGDVELSDERLESFWARAAELRAVVFLHPFGCSLDERLDRFYLSNTVGQPTENAVALSHLIFSGVLDRHPGLRLIAAHGGGYLPTAIGRSDRAWRVRPEARGCAHAPSTYLSKLWFDTVVHDERALRWLVEAAGADRVLLGSDFPFDMGLDDPVAFVRGAGLQDAEVSGILGGNAAELLRTRVHA

One series is described as follows: 14C assay with IPTG-induced recombinant E. coli cells: 14CO2 captured from [14C]-carboxyl-labeled dicamba. To be noted: dicamba decarboxylation activity of the protein of the given SEQ ID NO; High / Low / No.
In the case of B1, the “Enzymatic Detection level” value was “Low”.

In the case of B2, the “Enzymatic Detection level” value is “No”.

Turning to B3, the “Enzymatic Detection level” value is on record as “No”.

Take B4: the “Enzymatic Detection level” value was “Low”.

As for B5, the “Enzymatic Detection level” value is recorded as “Low”.

As to B6, the “Enzymatic Detection level” value is recorded as “Low”.

On to B7, for which the “Enzymatic Detection level” value is on record as “No”.

With B8, the “Enzymatic Detection level” value was “No”.

Consider B9, for which the “Enzymatic Detection level” value is on record as “Low”.

Take B10: the “Enzymatic Detection level” value is given as “No”.

Regarding B11, the “Enzymatic Detection level” value is “Low”.

In the case of B12, the “Enzymatic Detection level” value was “No”.

Still in this series, the particulars now being: induced recombinant E. coli cells, [14C]-carboxyl-labeled dicamba, 14CO2 capture.
As for B1, the “Dicamba Decarboxylase Activity” value is reported as “Low”.

For B2, the “Dicamba Decarboxylase Activity” value is reported as “No”.

Regarding B3, the “Dicamba Decarboxylase Activity” value is reported as “No”.

B4: the “Dicamba Decarboxylase Activity” value is given as “Low”.

Regarding B5, the “Dicamba Decarboxylase Activity” value is recorded as “Low”.

For B6, the “Dicamba Decarboxylase Activity” value is reported as “Low”.

On to B7, for which the “Dicamba Decarboxylase Activity” value is “No”.

For the molecule B8, the “Dicamba Decarboxylase Activity” value was “No”.

Take B9: the “Dicamba Decarboxylase Activity” value was “Low”.

Regarding B10, the “Dicamba Decarboxylase Activity” value is on record as “No”.

Take B11: the “Dicamba Decarboxylase Activity” value is recorded as “Low”.

In the case of B12, the “Dicamba Decarboxylase Activity” value is recorded as “No”.

A further series in a line: Saturation mutagenesis of SEQ ID NO:109: dicamba decarboxylation activity of point mutants (carbon dioxide released). To be noted: decarboxylation activity (carbon dioxide released) of point mutant compared with unmutated backbone protein; backbone SEQ ID NO: 109.
Take B1: the “Fold Activity” value came to 1.8.

For the molecule B2, the “Fold Activity” value is 2.4.

On to B3, for which the “Fold Activity” value is 1.6.

On to B4, for which the “Fold Activity” value came out at 1.7.

Regarding B5, the “Fold Activity” value worked out at 1.5.

With B6, the “Fold Activity” value turned out to be 1.2.

Turning to B7, the “Fold Activity” value is recorded as 0.9.

With B8, the “Fold Activity” value was 1.3.

B9: the “Fold Activity” value worked out at 0.9.

With B10, the “Fold Activity” value came to 1.

With B11, the “Fold Activity” value turned out to be 1.2.

Take B12: the “Fold Activity” value is listed as 1.3.
